Data taken from patent publication US20130150287A1.

Target: integrin overexpressed on cancer cells
Assay: cell-based or functional assay

B1: RGD peptide (…) (peptide)
peptide: CDCRGDCFC
reduction of cellular uptake of the recombinant protein particle by B16F10 cells after preincubation with 100-fold molar excess of RGD peptide: 40%
reduction of cellular uptake of the recombinant protein particle by B16F10 cells after preincubation with 200-fold molar excess of RGD peptide: 95%
reduction of cellular uptake of the recombinant protein particle by B16F10 cells after preincubation with 400-fold molar excess of RGD peptide: 95%
